B4: human IL-2R α-subunit, monomeric, with AcTev cleavage site and Avi His tag (receptor)
chain: ELCDDDPPEIPHATFKAMAYKEGTMLNCECKRGFRRIKSGSLYMLCTGNSSHSSWDNQCQCTSSATRNTTKQVTPQPEEQKERKTTEMQSPMQPVDQASLPGHCREPPPWENEATERIYHFVVGQMVYYQCVQGYRALHRGPAESVCKMTHGKTRWTQPQLICTGVDEQLYFQGGSGLNDIFEAQKIEWHEARAHHHHHH
notes: also called Hu IL-2R α; CD25

Where “and” joins values, the source holds several entries; their conditions need not be identical. Equal values may be shown once.

Test [1] has as its target T1, human FAP-His (human, UniProt Q12884 27-760).
T1 construct: also called Hu FAP; His-tagged human FAP; not shown: His tag
Put plainly: SPR, FAP-His captured via anti-His, Fab analyte, 1:1 fit, 25°C. In general terms: SPR reads the build-up and loss of mass on a sensor chip optically.

The target of test [2] is cynomolgus FAP-His (cynomolgus). The test is described as above.
Method: (§1) The FAP binding activity of the cleaved Fab fragments used in these examples as antigen binding, moieties was determined by surface plasmon resonance (SPR) on a Biacore machine. […] Temperature was 25° C. and HBS-EP was used as buffer. […] Fitting was performed based on a 1:1 binding model, RI=0, Rmax=local (because of capture format).
A further test has as its target T2, murine FAP-His (murine, UniProt P97321 27-761).
T2 construct: not shown: His tag
The test is described as above.

Test [3] addresses T1, human FAP-His. Nature of the test: SPR, FAP-His captured via anti-His, Fab analyte, steady state, 25°C.
Test [4] addresses cynomolgus FAP-His (cynomolgus). Described as above.
The target of test [5] is T3, Proleukin (Novartis/Chiron), commercially available wild-type IL-2 (UniProt P60568 22-153). Put plainly: SPR, receptor on CM5, IL-2 analyte, 25°C, kinetic.
T3 sequence (P60568 other isoform, or with tags, fused parts or gaps limits assumed, form in doubt): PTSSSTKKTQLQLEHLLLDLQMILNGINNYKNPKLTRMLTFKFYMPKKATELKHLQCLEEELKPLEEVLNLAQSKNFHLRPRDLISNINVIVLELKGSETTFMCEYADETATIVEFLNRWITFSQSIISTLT
Method: (§2) Subsequently, affinity for the IL-2R βγ heterodimer and the IL-2R α-subunit were determined by surface plasmon resonance (SPR). Briefly, the ligand—either human IL-2R α-subunit (Fc2) or human IL2-R β knob γ hole heterodimer (Fc3)—was immobilized on a CM5 chip. […] Flow rate was 30 l/min and the following conditions were applied for association: 180s, dissociation: 300 s, and regeneration: 2×30 s 3M MgCl₂ for IL2-R β knob γ hole heterodimer, 10 s 50 mM NaOH for IL-2R α-subunit.
Test [6] has as its target T3, Proleukin (Novartis/Chiron), …. Nature of the test: SPR, receptor on CM5, IL-2 analyte, 25°C, steady state.
Method: as §2
The target of test [7] is T4, human IL-2R βγ heterodimer, subunit-Fc knobs-into-holes fusion (human).
T4 construct: The entries may hold a leader peptide; also called Hu IL-2R βγ; human IL2-R β knob γ hole heterodimer
Put plainly: SPR, receptor on CM5, IL-2 analyte, 25°C, kinetic.
Method: as §2

The target of test [8] is B4. Nature of the test: SPR, receptor on CM5, kinetic.
In test [9] the target is T1, human FAP-His. Nature of the test: SPR, His-tagged human FAP captured via anti-His, apparent bivalent affinity (avidity), 25°C.
Method: Temperature was 25° C. and HBS-EP was used as buffer. Analyte concentration was 50 nM down to 0.05 nM at a flow rate of 50 μl/min (association: 300 s, dissociation: 900 s, regeneration: 60 s, with 10 mM glycine pH 2). Fitting was performed based on a 1:1 binding model, RI=0, Rmax=local (because of capture format).
Test [10] concerns the target T5, human DPPIV on transfected HEK 293 cells (human, UniProt P27487 1-766).
T5 construct: whole, on cells; also called CD26
Put plainly: FACS on HEK 293-human DPPIV cells, with HEK mock-transfected cells, cells only and sec. antibody as controls; concentration not shown.

Test [11] concerns the target T6, human FAP expressed on stably transfected HEK293 cells (human, UniProt Q12884 1-760).
T6 construct: whole, on cells
Nature of the test: FACS on HEK 293-human FAP cells, median fluorescence against concentration.
Method: Briefly, 250 000 cells per well were incubated with the indicated concentration of the immunoconjugates in a round-bottom 96-well plate, incubated for 30 min at 4° C., and washed once with PBS/0.1% BSA.

In test [12] the target is FAP on GM05389 fibroblasts. Put plainly: FACS on GM05389 fibroblasts, surface-bound construct detected with secondary antibody after the times shown (internalization analysis); concentration not shown.

Method for murine FAP-His: as §1

B1: 3F2 Fab (Fab, V domains shown)
VH: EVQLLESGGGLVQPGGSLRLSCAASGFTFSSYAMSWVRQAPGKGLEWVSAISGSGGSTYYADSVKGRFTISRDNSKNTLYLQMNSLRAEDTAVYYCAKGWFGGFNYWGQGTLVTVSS
VL: EIVLTQSPGTLSLSPGERATLSCRASQSVTSSYLAWYQQKPGQAPRLLINVGSRRATGIPDRFSGSGSGTDFTLTISRLEPEDFAVYYCQQGIMLPPTFGQGTKVEIKR
In the case of B1, the Kd is 6 nM with human FAP-His [1]; 4.7 nM and 5.3 nM with cynomolgus FAP-His [2]; 8.9 nM and 9.5 nM with murine FAP-His.

B2: 28H1 Fab (Fab, V domains shown)
VH: EVQLLESGGGLVQPGGSLRLSCAASGFTFSSHAMSWVRQAPGKGLEWVSAIWASGEQYYADSVKGRFTISRDNSKNTLYLQMNSLRAEDTAVYYCAKGWLGNFDYWGQGTLVTVSS
VL: EIVLTQSPGTLSLSPGERATLSCRASQSVSRSYLAWYQQKPGQAPRLLIIGASTRATGIPDRFSGSGSGTDFTLTISRLEPEDFAVYYCQQGQVIPPTFGQGTKVEIKR
notes: Cleaved Fab fragment
As to B2, the Kd with human FAP-His [1] is 2.6 nM; in the test with murine FAP-His, 0.13 nM and 0.18 nM.

B3: 4G8 Fab (Fab, V domains shown)
VH: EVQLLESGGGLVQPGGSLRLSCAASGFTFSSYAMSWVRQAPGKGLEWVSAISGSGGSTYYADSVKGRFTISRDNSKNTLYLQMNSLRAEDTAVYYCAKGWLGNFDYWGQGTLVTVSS
VL: EIVLTQSPGTLSLSPGERATLSCRASQSVSRSYLAWYQQKPGQAPRLLIIGASTRATGIPDRFSGSGSGTDFTLTISRLEPEDFAVYYCQQGQVIPPTFGQGTKVEIKR
For B3, the Kd was 48 nM in the test with human FAP-His [3]; 33 nM and 34 nM with cynomolgus FAP-His [4]; 53 nM and 51 nM in the test with human FAP-His [1]; 33 nM and 35 nM with cynomolgus FAP-His [2]; 0.07 nM in the test with murine FAP-His.

For B4, the Kd is 7.5 nM and 12.5 nM in test [5]; 19 nM and 17.8 nM in test [6].

B5: Naked IL-2 qm (quadruple mutant T3A/F42A/Y45A/L72G, His-tagged) (ligand)
chain: APASSSTKKTQLQLEHLLLDLQMILNGINNYKNPKLTRMLTAKFAMPKKATELKHLQCLEEELKPLEEVLNGAQSKNFHLRPRDLISNINVIVLELKGSETTFMCEYADETATIVEFLNRWITFAQSIISTLTVDHHHHHH
notes: also called naked IL-2 quadruple mutant; quadruple mutant IL-2
In the case of B5, the Kd in [7] was 2.7 nM and 2 nM. Further, in test [8], the binding result is recorded as “no binding (tested: 300 nM)”.

B6: 4B9 Fab (Fab, V domains shown)
VH: EVQLLESGGGLVQPGGSLRLSCAASGFTFSSYAMSWVRQAPGKGLEWVSAIIGSGASTYYADSVKGRFTISRDNSKNTLYLQMNSLRAEDTAVYYCAKGWFGGFNYWGQGTLVTVSS
VL: EIVLTQSPGTLSLSPGERATLSCRASQSVTSSYLAWYQQKPGQAPRLLINVGSRRATGIPDRFSGSGSGTDFTLTISRLEPEDFAVYYCQQGIMLPPTFGQGTKVEIK
For B6, the Kd with human FAP-His [1] is 0.3 nM and 0.31 nM; in the test with cynomolgus FAP-His [2], 0.23 nM and 0.24 nM; in the test with murine FAP-His, 5 nM and 5.2 nM.

B7: 28H1 IgG (antibody, V domains shown)
VH: EVQLLESGGGLVQPGGSLRLSCAASGFTFSSHAMSWVRQAPGKGLEWVSAIWASGEQYYADSVKGRFTISRDNSKNTLYLQMNSLRAEDTAVYYCAKGWLGNFDYWGQGTLVTVSS
VL: EIVLTQSPGTLSLSPGERATLSCRASQSVSRSYLAWYQQKPGQAPRLLIIGASTRATGIPDRFSGSGSGTDFTLTISRLEPEDFAVYYCQQGQVIPPTFGQGTKVEIK
notes: also called unmodified 28H1 IgG antibody
Take B7: the Kd with human FAP-His [9] came to 0.2 nM.

B8: 14B3 Fab (Fab, V domains shown)
VH: EVQLLESGGGLVQPGGSLRLSCAASGFTFSSYAMSWVRQAPGKGLEWVSAILASGAITYYADSVKGRFTISRDNSKNTLYLQMNSLRAEDTAVYYCAKGWFGGFNYWGQGTLVTVSS
VL: EIVLTQSPGTLSLSPGERATLSCRASQSVTSSYLAWYQQKPGQAPRLLINVGSRRATGIPDRFSGSGSGTDFTLTISRLEPEDFAVYYCQQGIMLPPTFGQGTKVEIKR
notes: Cleaved Fab fragment
In the case of B8, the Kd is 0.47 nM in the test with human FAP-His [1]; 0.59 nM and 0.61 nM with cynomolgus FAP-His [2]; 4.7 nM with murine FAP-His.

B9: 4G8 IgG (antibody, V domains shown)
VH: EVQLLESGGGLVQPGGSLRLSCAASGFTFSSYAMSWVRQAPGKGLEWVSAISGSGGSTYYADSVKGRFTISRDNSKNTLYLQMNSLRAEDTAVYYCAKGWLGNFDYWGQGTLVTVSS
VL: EIVLTQSPGTLSLSPGERATLSCRASQSVSRSYLAWYQQKPGQAPRLLIIGASTRATGIPDRFSGSGSGTDFTLTISRLEPEDFAVYYCQQGQVIPPTFGQGTKVEIK
Regarding B9, the Kd with human FAP-His [9] turned out to be 0.05 nM.

B10: 29B11 Fab (Fab, V domains shown)
VH: EVQLLESGGGLVQPGGSLRLSCAASGFTFSSYAMSWVRQAPGKGLEWVSAIIGSGGITYYADSVKGRFTISRDNSKNTLYLQMNSLRAEDTAVYYCAKGWFGGFNYWGQGTLVTVSS
VL: EIVLTQSPGTLSLSPGERATLSCRASQSVTSSYLAWYQQKPGQAPRLLINVGSRRATGIPDRFSGSGSGTDFTLTISRLEPEDFAVYYCQQGIMLPPTFGQGTKVEIKR
notes: Cleaved Fab fragment
In the case of B10, the Kd with human FAP-His [1] was 0.19 nM; with cynomolgus FAP-His [2], 0.21 nM and 0.2 nM; in the test with murine FAP-His it was 1.3 nM and 1.2 nM.

B11: 4B9 Fab-IL-2 qm-Fab (other)
chain: EVQLLESGGGLVQPGGSLRLSCAASGFTFSSYAMSWVRQAPGKGLEWVSAIIGSGASTYYADSVKGRFTISRDNSKNTLYLQMNSLRAEDTAVYYCAKGWFGGFNYWGQGTLVTVSSASTKGPSVFPLAPSSKSTSGGTAALGCLVKDYFPEPVTVSWNSGALTSGVHTFPAVLQSSGLYSLSSVVTVPSSSLGTQTYICNVNHKPSNTKVDKKVEPKSCDSGGGGSGGGGSGGGGAPASSSTKKTQLQLEHLLLDLQMILNGINNYKNPKLTRMLTAKFAMPKKATELKHLQCLEEELKPLEEVLNGAQSKNFHLRPRDLISNINVIVLELKGSETTFMCEYADETATIVEFLNRWITFAQSIISTLTSGGGGSGGGGSGGGGEVQLLESGGGLVQPGGSLRLSCAASGFTFSSYAMSWVRQAPGKGLEWVSAIIGSGASTYYADSVKGRFTISRDNSKNTLYLQMNSLRAEDTAVYYCAKGWFGGFNYWGQGTLVTVSSASTKGPSVFPLAPSSKSTSGGTAALGCLVKDYFPEPVTVSWNSGALTSGVHTFPAVLQSSGLYSLSSVVTVPSSSLGTQTYICNVNHKPSNTKVDKKVEPKSCD
light: EIVLTQSPGTLSLSPGERATLSCRASQSVTSSYLAWYQQKPGQAPRLLINVGSRRATGIPDRFSGSGSGTDFTLTISRLEPEDFAVYYCQQGIMLPPTFGQGTKVEIKRTVAAPSVFIFPPSDEQLKSGTASVVCLLNNFYPREAKVQWKVDNALQSGNSQESVTEQDSKDSTYSLSSTLTLSKADYEKHKVYACEVTHQGLSSPVTKSFNRGEC
notes: Fab-IL-2-Fab immunoconjugate against FAP with quadruple mutant IL-2
B11: the binding result in test [10] is given as “no binding”; in test [11], “binds”; in test [12] it was “binds”.

B12: 14B3 Fab-IL-2 qm-Fab (other)
chain: EVQLLESGGGLVQPGGSLRLSCAASGFTFSSYAMSWVRQAPGKGLEWVSAILASGAITYYADSVKGRFTISRDNSKNTLYLQMNSLRAEDTAVYYCAKGWFGGFNYWGQGTLVTVSSASTKGPSVFPLAPSSKSTSGGTAALGCLVKDYFPEPVTVSWNSGALTSGVHTFPAVLQSSGLYSLSSVVTVPSSSLGTQTYICNVNHKPSNTKVDKKVEPKSCDSGGGGSGGGGSGGGGAPASSSTKKTQLQLEHLLLDLQMILNGINNYKNPKLTRMLTAKFAMPKKATELKHLQCLEEELKPLEEVLNGAQSKNFHLRPRDLISNINVIVLELKGSETTFMCEYADETATIVEFLNRWITFAQSIISTLTSGGGGSGGGGSGGGGEVQLLESGGGLVQPGGSLRLSCAASGFTFSSYAMSWVRQAPGKGLEWVSAILASGAITYYADSVKGRFTISRDNSKNTLYLQMNSLRAEDTAVYYCAKGWFGGFNYWGQGTLVTVSSASTKGPSVFPLAPSSKSTSGGTAALGCLVKDYFPEPVTVSWNSGALTSGVHTFPAVLQSSGLYSLSSVVTVPSSSLGTQTYICNVNHKPSNTKVDKKVEPKSCD
light: EIVLTQSPGTLSLSPGERATLSCRASQSVTSSYLAWYQQKPGQAPRLLINVGSRRATGIPDRFSGSGSGTDFTLTISRLEPEDFAVYYCQQGIMLPPTFGQGTKVEIKRTVAAPSVFIFPPSDEQLKSGTASVVCLLNNFYPREAKVQWKVDNALQSGNSQESVTEQDSKDSTYSLSSTLTLSKADYEKHKVYACEVTHQGLSSPVTKSFNRGEC
notes: as for B11
For orientation: EC50 (read off the curve) means the concentration giving half of the maximal effect. Higher therefore signals lower potency in that assay. Regarding B12, the binding result in test [10] is recorded as “no binding”; in test [12], “binds”. The “EC50 (read off the curve)” value in test [11] is around 20 nM.

The values above are taken from patent publication US20190322765A1 (Hoffmann-La Roche, published 2019).
